Laboratory results published in publication PMC9515155.

Legend:
[1] = target: human IgE (Calbiochem) (human); assay: SPR; details: Fc fusion
IgE_(TRAP) (human) = IgE_(TRAP) (human) (UniProt P12319); assay: SPR; ProteOn XPR36, GLC chip; 500 RU of IgE_(TRAP) immobilised in acetate buffer pH 4.0 (850 RU of omalizumab at pH 5.5); human IgE flowed over; PBS with 0.005% Tween-20, 30 μL/min

Sequence of human IgE (Calbiochem) (natural protein) (P01854 whole entry): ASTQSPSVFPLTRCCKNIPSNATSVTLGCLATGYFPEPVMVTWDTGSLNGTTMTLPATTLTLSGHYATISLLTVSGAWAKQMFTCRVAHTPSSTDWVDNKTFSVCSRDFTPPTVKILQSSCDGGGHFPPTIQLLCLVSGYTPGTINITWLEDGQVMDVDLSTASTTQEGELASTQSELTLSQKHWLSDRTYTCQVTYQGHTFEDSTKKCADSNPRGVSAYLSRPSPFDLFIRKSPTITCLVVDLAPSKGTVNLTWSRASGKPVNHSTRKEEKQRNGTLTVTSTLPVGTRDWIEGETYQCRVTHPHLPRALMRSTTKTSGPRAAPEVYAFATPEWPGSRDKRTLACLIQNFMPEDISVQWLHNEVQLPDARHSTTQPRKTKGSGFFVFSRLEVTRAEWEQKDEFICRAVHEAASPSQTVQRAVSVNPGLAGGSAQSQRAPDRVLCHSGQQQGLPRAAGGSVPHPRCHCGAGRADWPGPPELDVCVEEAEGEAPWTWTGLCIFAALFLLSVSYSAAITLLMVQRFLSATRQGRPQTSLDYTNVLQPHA
Sequence of human IgE (Calbiochem) (human) (P01854 whole entry, the tested form may be a part): as the sequence (P01854 whole entry) above

Row | Substance | Kd [1] [nM] | koff [1] [s⁻¹] | fold higher binding affinity than omalizumab (IgE_(TRAP) (human)) [fold] | fold lower association rate constant (Ka) than omalizumab (IgE_(TRAP) (human)) [fold] | fold lower dissociation rate constant (Kd) than omalizumab (IgE_(TRAP) (human)) [fold]
1 | IgE_(TRAP) (from UniProt P12319 25-205; P01880 133-170; P01861 121-327) | 0.215 | 5.69e-05 | – | – | –
2 | human IgE (Calbiochem) (natural protein) | – | – | 69 | 1.5 | 105
